Tests used:
SNAP25 Peptide 2 (PEP2) = biological target: T1, SNAP25 Peptide 2 (PEP2) (Homo sapiens, UniProt P60880 SEQ:1-37); assay: ELONA
T1 chain: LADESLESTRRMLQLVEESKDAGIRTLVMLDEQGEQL
Excerpt: (§1) The data in Table 2 was collected by running direct ELISA assays on the 96 X-aptamers, elucidating their ability to bind SNAP25, SNAP25 fragments (PEP1, PEP2, PEP3, and PEP4), and a negative control. The X-aptamers were biotinylated and immobilized onto streptavidin-coated plates and were utilized as detection molecules. Higher numbers represent strong binding. The negative control peptide is a random peptide to measure the amount of binding that occurs to a random amino acid sequence.

[1] = biological target: T2, SNAP25 full length (FLAG and MYC tagged) (Homo sapiens, UniProt P60880 SEQ:12-217); assay: ELONA; full-length SNAP25; settings: tags: FLAG and MYC
T2 sequence (P60880 whole entry): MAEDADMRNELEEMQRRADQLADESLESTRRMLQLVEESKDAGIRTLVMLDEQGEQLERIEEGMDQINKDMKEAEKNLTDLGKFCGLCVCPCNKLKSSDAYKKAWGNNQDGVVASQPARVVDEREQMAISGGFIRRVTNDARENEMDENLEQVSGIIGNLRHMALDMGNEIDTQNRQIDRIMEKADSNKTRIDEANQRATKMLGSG
Excerpt: as §1

[2] = biological target: T3, SNAP25 Peptide 3 (PEP3; only a fragment of it is a SNAP25 subsequence) (Homo sapiens, UniProt P60880 SEQ:1-33); assay: ELONA
T3 chain: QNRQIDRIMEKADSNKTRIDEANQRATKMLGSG
Excerpt: as §1

[3] = biological target: T2, SNAP25 full length (FLAG and MYC tagged); assay: ELONA; settings: tags: FLAG and MYC
Excerpt: as §1

B1: PEP 2.18 (ssDNA)
DNA: TTTTTAACACGACGTTACTGTGGTCATCACAGGATGAGCCTGTCGTGCCATG
modifications: W indole, X amine, Y phenol modified dU [15Y,16W,19Y,24W,27X,35Y,43X,46Y]
SNAP25 Peptide 2 (PEP2)
  binding signal: 26 ELISA signal

B2: PEP 4.10 (ssDNA)
DNA: TTTTTAAGCCCACAAGACTGTGCGTCGCACAGATTGGCATCGTCGTGCCATG
modifications: W indole, X amine, Y phenol modified dU [19,25,34,35,40,43,46]
[1]
  binding signal: 4 ELISA signal

B3: PEP 3.09 (ssDNA)
DNA: TTTTTAAGCCCACTGCACTGTGTACATCGAACTGCACCAACGTGGGCCCATG
modifications: W indole, X amine, Y phenol modified dU [14X,19Y,23W,27X]
[2]
  binding signal: 196 ELISA signal
[1]
  binding signal: 168 ELISA signal

B4: SNAP.03 (ssDNA)
DNA: TTTTTAAGCCCACGGGTGTTCGACAGACACAGCAATACATCGTGGGCCCATG
modifications: W indole, X amine, Y phenol modified dU [17,19,20,36,40]
[3]
  binding signal: 92 ELISA signal

B5: SNAP.05 (ssDNA)
DNA: TTTTTAAGCCCACCCCGGTTCGCCAGACGAACCCCAACAGTGTGGGCCCATG
modifications: W indole, X amine, Y phenol modified dU [19,20]
[3]
  binding signal: 75 ELISA signal

B6: PEP 4.11 (ssDNA)
DNA: TTTTTAAGCCCACCCGAGTTCGTCCAGCGAACCACGCGCGTGTCGTGCCATG
modifications: W indole, X amine, Y phenol modified dU [19,20,23,43,46]
[1]
  binding signal: 0 ELISA signal

B7: SNAP.04 (ssDNA)
DNA: TTTTTAAGCCCACCCACCTGTGGACATCGAACCTCACTGCAGTGGGCCCATG
modifications: W indole, X amine, Y phenol modified dU [19,27,34,38]
[3]
  binding signal: 83 ELISA signal

B8: SNAP.02 (ssDNA)
DNA: TTTTTAAGCCCACACTGCTGTGAAGGACACAGCCCGACATCGTCGTGCCATG
modifications: W indole, X amine, Y phenol modified dU [16,19,40,43,46]
[3]
  binding signal: 95 ELISA signal

B9: PEP 4.09 (ssDNA)
DNA: TTTTTAACACGACATATGTTCGACGGACACAGTGTGTGGCGGTCGTGCCATG
modifications: W indole, X amine, Y phenol modified dU [15,17,19,20,35,43,46]
[1]
  binding signal: 0 ELISA signal

B10: SNAP.06 (ssDNA)
DNA: TTTTTAAGCCCACTTCGCTGTGAGCAACGAACATCGAGCAGGTCGTGCCATG
modifications: W indole, X amine, Y phenol modified dU [14,15,19,34,43,46]
[3]
  binding signal: 45 ELISA signal

B11: SNAP.07 (ssDNA)
DNA: TTTTTAACACGACCGGGCTGTGCACATCGAACACTGCGGTCGTCGTGCCATG
modifications: W indole, X amine, Y phenol modified dU [19,27,35,40,43,46]
[3]
  binding signal: 38 ELISA signal

B12: SNAP.08 (ssDNA)
DNA: TTTTTAACACGACTGAAGTTCGCCAGGCGAACATCGTGGTGGTCGTGCCATG
modifications: W indole, X amine, Y phenol modified dU [14,19,20,34,40,43,46]
[3]
  binding signal: 35 ELISA signal
